Ends that are not written are not given here. dimethyl = dimethyl-lysine

For the assay, the target named is T1, 53BP1 tandem Tudor domain (residues 1459-1634) (human, UniProt Q12888 1459-1634).
T1 chain: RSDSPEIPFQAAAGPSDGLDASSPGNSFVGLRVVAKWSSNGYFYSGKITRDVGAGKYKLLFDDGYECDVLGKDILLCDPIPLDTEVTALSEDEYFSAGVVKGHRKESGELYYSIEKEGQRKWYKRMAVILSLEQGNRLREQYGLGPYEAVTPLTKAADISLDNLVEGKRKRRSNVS
Kind of assay: ITC. (ITC needs no label: the signal is the heat of the interaction.)

KGGAKRHRK(dimethyl)VLRDN [H4K20me2 peptide (residues 12-25)]: the Kd (commonly a measure of binding affinity in units of concentration) is 19.8 µM.

(Values after paper PMC6043480 (2018).)
